T1: EsCas13d, nuclease-dead (Eubacterium siraeum, UniProt B0MS50, R295A;H300A;R849A;H854A)
T1 sequence: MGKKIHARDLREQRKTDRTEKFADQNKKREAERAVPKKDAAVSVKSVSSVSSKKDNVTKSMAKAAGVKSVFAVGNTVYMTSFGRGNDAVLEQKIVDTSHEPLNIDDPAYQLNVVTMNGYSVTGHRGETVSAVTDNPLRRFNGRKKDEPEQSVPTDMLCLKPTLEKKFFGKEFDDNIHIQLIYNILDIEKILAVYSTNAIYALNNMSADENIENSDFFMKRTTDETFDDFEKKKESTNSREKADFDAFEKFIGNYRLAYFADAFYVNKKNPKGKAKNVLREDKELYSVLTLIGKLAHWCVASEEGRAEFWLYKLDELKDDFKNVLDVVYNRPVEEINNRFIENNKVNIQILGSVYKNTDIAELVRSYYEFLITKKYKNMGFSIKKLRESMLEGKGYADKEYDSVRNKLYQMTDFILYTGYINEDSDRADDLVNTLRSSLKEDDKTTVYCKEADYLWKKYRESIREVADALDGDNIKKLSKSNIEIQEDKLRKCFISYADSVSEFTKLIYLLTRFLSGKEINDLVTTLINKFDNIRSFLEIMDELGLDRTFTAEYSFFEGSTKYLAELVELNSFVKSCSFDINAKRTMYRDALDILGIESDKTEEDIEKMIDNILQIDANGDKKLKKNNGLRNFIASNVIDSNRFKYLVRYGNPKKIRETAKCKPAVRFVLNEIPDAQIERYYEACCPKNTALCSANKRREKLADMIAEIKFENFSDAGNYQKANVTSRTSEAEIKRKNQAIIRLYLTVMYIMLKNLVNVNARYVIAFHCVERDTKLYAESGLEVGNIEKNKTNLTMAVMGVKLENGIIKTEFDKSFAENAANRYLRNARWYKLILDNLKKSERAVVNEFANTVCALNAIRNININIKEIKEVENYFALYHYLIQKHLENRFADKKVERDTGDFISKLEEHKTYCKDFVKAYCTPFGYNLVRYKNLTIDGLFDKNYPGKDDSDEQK

B1: target 1 G12A,A16G (mixed)
RNA 1: CACCCGUGCAAAAAUGCAGGGGUCUAAAACUGAGCGGAUAACCUCUCUAUGG
RNA 2: GGGAAUGGAUCCACAUCUACGAAUUCGUACCAUAGGGAGAUUAUCCGCUCACCGAGAUCGGAAGAGCACACGU
B2: target 1 insC 3' of 14,insG 3' of 7 (mixed)
RNA 1: CACCCGUGCAAAAAUGCAGGGGUCUAAAACUGAGCGGAUAACCUCUCUAUGG
RNA 2: GGGAAUGGAUCCACAUCUACGAAUUCGUACCAUAGAGACGGUUAUCGCGCUCACCGAGAUCGGAAGAGCACACGU
B3: target 1 insG 3' of 10,insC 3' of 9 (mixed)
RNA 1: CACCCGUGCAAAAAUGCAGGGGUCUAAAACUGAGCGGAUAACCUCUCUAUGG
RNA 2: GGGAAUGGAUCCACAUCUACGAAUUCGUACCAUAGAGAGGUUGACUCCGCUCACCGAGAUCGGAAGAGCACACGU
B4: target 1 U8C (mixed)
RNA 1: CACCCGUGCAAAAAUGCAGGGGUCUAAAACUGAGCGGAUAACCUCUCUAUGG
RNA 2: GGGAAUGGAUCCACAUCUACGAAUUCGUACCAUAGAGAGGUUACCCGCUCACCGAGAUCGGAAGAGCACACGU
B5: target 1 insA 3' of 19,insC 3' of 11 (mixed)
RNA 1: CACCCGUGCAAAAAUGCAGGGGUCUAAAACUGAGCGGAUAACCUCUCUAUGG
RNA 2: GGGAAUGGAUCCACAUCUACGAAUUCGUACCAUAAGAGAGGUCUAUCCGCUCACCGAGAUCGGAAGAGCACACGU
B6: target 1 complement block 3-5 (mixed)
RNA 1: CACCCGUGCAAAAAUGCAGGGGUCUAAAACUGAGCGGAUAACCUCUCUAUGG
RNA 2: GGGAAUGGAUCCACAUCUACGAAUUCGUACCAUAGAGAGGUUAUCCCGACACCGAGAUCGGAAGAGCACACGU
B7: target 1 A1U,U8C (mixed)
RNA 1: CACCCGUGCAAAAAUGCAGGGGUCUAAAACUGAGCGGAUAACCUCUCUAUGG
RNA 2: GGGAAUGGAUCCACAUCUACGAAUUCGUACCAUAGAGAGGUUACCCGCUCUCCGAGAUCGGAAGAGCACACGU
B8: target 1 insC 3' of 13,insU 3' of 1 (mixed)
RNA 1: CACCCGUGCAAAAAUGCAGGGGUCUAAAACUGAGCGGAUAACCUCUCUAUGG
RNA 2: GGGAAUGGAUCCACAUCUACGAAUUCGUACCAUAGAGAGCGUUAUCCGCUCAUCCGAGAUCGGAAGAGCACACGU
B9: target 1 insA 3' of 19,insG 3' of 8 (mixed)
RNA 1: CACCCGUGCAAAAAUGCAGGGGUCUAAAACUGAGCGGAUAACCUCUCUAUGG
RNA 2: GGGAAUGGAUCCACAUCUACGAAUUCGUACCAUAAGAGAGGUUAUGCCGCUCACCGAGAUCGGAAGAGCACACGU
B10: target 1 A1G,U8C (mixed)
RNA 1: CACCCGUGCAAAAAUGCAGGGGUCUAAAACUGAGCGGAUAACCUCUCUAUGG
RNA 2: GGGAAUGGAUCCACAUCUACGAAUUCGUACCAUAGAGAGGUUACCCGCUCGCCGAGAUCGGAAGAGCACACGU
B11: target 1 insA 3' of 5 (mixed)
RNA 1: CACCCGUGCAAAAAUGCAGGGGUCUAAAACUGAGCGGAUAACCUCUCUAUGG
RNA 2: GGGAAUGGAUCCACAUCUACGAAUUCGUACCAUAGAGAGGUUAUCCGACUCACCGAGAUCGGAAGAGCACACGU
B12: target 1 insC 3' of 17,insC 3' of 13 (mixed)
RNA 1: CACCCGUGCAAAAAUGCAGGGGUCUAAAACUGAGCGGAUAACCUCUCUAUGG
RNA 2: GGGAAUGGAUCCACAUCUACGAAUUCGUACCAUAGCAGAGCGUUAUCCGCUCACCGAGAUCGGAAGAGCACACGU
B13: target 1 insC 3' of 13,insG 3' of 1 (mixed)
RNA 1: CACCCGUGCAAAAAUGCAGGGGUCUAAAACUGAGCGGAUAACCUCUCUAUGG
RNA 2: GGGAAUGGAUCCACAUCUACGAAUUCGUACCAUAGAGAGCGUUAUCCGCUCAGCCGAGAUCGGAAGAGCACACGU
B14: target 1 insG 3' of 19,insU 3' of 4 (mixed)
RNA 1: CACCCGUGCAAAAAUGCAGGGGUCUAAAACUGAGCGGAUAACCUCUCUAUGG
RNA 2: GGGAAUGGAUCCACAUCUACGAAUUCGUACCAUGAGAGAGGUUAUCCGCUUCACCGAGAUCGGAAGAGCACACGU
B15: target 1 G5A,U8G (mixed)
RNA 1: CACCCGUGCAAAAAUGCAGGGGUCUAAAACUGAGCGGAUAACCUCUCUAUGG
RNA 2: GGGAAUGGAUCCACAUCUACGAAUUCGUACCAUAGAGAGGUUAGCCACUCACCGAGAUCGGAAGAGCACACGU
B16: target 1 A1U,U11A (mixed)
RNA 1: CACCCGUGCAAAAAUGCAGGGGUCUAAAACUGAGCGGAUAACCUCUCUAUGG
RNA 2: GGGAAUGGAUCCACAUCUACGAAUUCGUACCAUAGAGAGGAUAUCCGCUCUCCGAGAUCGGAAGAGCACACGU
B17: target 1 del3,del17 (mixed)
RNA 1: CACCCGUGCAAAAAUGCAGGGGUCUAAAACUGAGCGGAUAACCUCUCUAUGG
RNA 2: GGGAAUGGAUCCACAUCUACGAAUUCGUACCAUAAGAGGUUAUCCGCCACCGAGAUCGGAAGAGCACACGU
B18: target 1 C6G,U11G (mixed)
RNA 1: CACCCGUGCAAAAAUGCAGGGGUCUAAAACUGAGCGGAUAACCUCUCUAUGG
RNA 2: GGGAAUGGAUCCACAUCUACGAAUUCGUACCAUAGAGAGGGUAUCGGCUCACCGAGAUCGGAAGAGCACACGU
B19: target 1 insG 3' of 4,insG 3' of 4 (mixed)
RNA 1: CACCCGUGCAAAAAUGCAGGGGUCUAAAACUGAGCGGAUAACCUCUCUAUGG
RNA 2: GGGAAUGGAUCCACAUCUACGAAUUCGUACCAUAGAGAGGUUAUCCGCGGUCACCGAGAUCGGAAGAGCACACGU
B20: target 1 C6A,G13A (mixed)
RNA 1: CACCCGUGCAAAAAUGCAGGGGUCUAAAACUGAGCGGAUAACCUCUCUAUGG
RNA 2: GGGAAUGGAUCCACAUCUACGAAUUCGUACCAUAGAGAAGUUAUCAGCUCACCGAGAUCGGAAGAGCACACGU
B21: target 1 insC 3' of 13,insA 3' of 2 (mixed)
RNA 1: CACCCGUGCAAAAAUGCAGGGGUCUAAAACUGAGCGGAUAACCUCUCUAUGG
RNA 2: GGGAAUGGAUCCACAUCUACGAAUUCGUACCAUAGAGAGCGUUAUCCGCUCAACCGAGAUCGGAAGAGCACACGU
B22: target 1 G5C,U19G (mixed)
RNA 1: CACCCGUGCAAAAAUGCAGGGGUCUAAAACUGAGCGGAUAACCUCUCUAUGG
RNA 2: GGGAAUGGAUCCACAUCUACGAAUUCGUACCAGAGAGAGGUUAUCCCCUCACCGAGAUCGGAAGAGCACACGU
B23: target 1 insG 3' of 18,insA 3' of 11 (mixed)
RNA 1: CACCCGUGCAAAAAUGCAGGGGUCUAAAACUGAGCGGAUAACCUCUCUAUGG
RNA 2: GGGAAUGGAUCCACAUCUACGAAUUCGUACCAUAGGAGAGGUAUAUCCGCUCACCGAGAUCGGAAGAGCACACGU
B24: target 1 U19C,C22U (mixed)
RNA 1: CACCCGUGCAAAAAUGCAGGGGUCUAAAACUGAGCGGAUAACCUCUCUAUGG
RNA 2: GGGAAUGGAUCCACAUCUACGAAUUCGUAUCACAGAGAGGUUAUCCGCUCACCGAGAUCGGAAGAGCACACGU
B25: target 1 insU 3' of 12,insA 3' of 12 (mixed)
RNA 1: CACCCGUGCAAAAAUGCAGGGGUCUAAAACUGAGCGGAUAACCUCUCUAUGG
RNA 2: GGGAAUGGAUCCACAUCUACGAAUUCGUACCAUAGAGAGGUAUUAUCCGCUCACCGAGAUCGGAAGAGCACACGU
B26: target 1 insC 3' of 13,insC 3' of 1 (mixed)
RNA 1: CACCCGUGCAAAAAUGCAGGGGUCUAAAACUGAGCGGAUAACCUCUCUAUGG
RNA 2: GGGAAUGGAUCCACAUCUACGAAUUCGUACCAUAGAGAGCGUUAUCCGCUCACCCGAGAUCGGAAGAGCACACGU
B27: target 1 A1C,U8C (mixed)
RNA 1: CACCCGUGCAAAAAUGCAGGGGUCUAAAACUGAGCGGAUAACCUCUCUAUGG
RNA 2: GGGAAUGGAUCCACAUCUACGAAUUCGUACCAUAGAGAGGUUACCCGCUCCCCGAGAUCGGAAGAGCACACGU
B28: target 1 insU 3' of 20,insU 3' of 20 (mixed)
RNA 1: CACCCGUGCAAAAAUGCAGGGGUCUAAAACUGAGCGGAUAACCUCUCUAUGG
RNA 2: GGGAAUGGAUCCACAUCUACGAAUUCGUACCAUUUAGAGAGGUUAUCCGCUCACCGAGAUCGGAAGAGCACACGU

molecular target: T1, EsCas13d, nuclease-dead; assay: crRNA (strand 1, pre-loaded); Mg2+; 40 mM Tris-HCl pH 7.5, 150 mM NaCl, 6 mM MgCl2, 1 mM DTT, 0.1% Tween-20, 0.2 mg/ml BSA; 25 C; 10 min per concentration, then washed; conditions: tags: His6-TwinStrep-SUMO cleaved; N-terminal SNAP kept (SNAP-Surface 488); label: 3' end held by stalled T7 RNA polymerase

Q: Which Kd does the source give for B1 here?
A: 48 ± 5 nM

Q: For B2, which Kd is on record?
A: 41 ± 8 nM

Q: How did the Kd turn out when B3 was run?
A: 14.9 ± 0.6 nM

Q: B4 was tested. Which Kd did it give?
A: 11.2 ± 0.4 nM

Q: Which Kd does the source give for B5 here?
A: 100 ± 40 nM

Q: B6 was tested. Which Kd did it give?
A: 10.5 ± 1 nM

Q: With B7 as the binder, how does the Kd read?
A: 11.2 ± 0.5 nM

Q: Which Kd does the source give for B8 here?
A: 11.5 ± 1.1 nM

Q: How did the Kd turn out when B9 was run?
A: 32.7 ± 2.3 nM

Q: For B10, which Kd is on record?
A: 10.2 ± 0.9 nM

Q: Which Kd does the source give for B11 here?
A: 6.2 ± 0.4 nM

Q: With B12 as the binder, how does the Kd read?
A: 48 ± 7 nM

Q: For B13, which Kd is on record?
A: 9.17 ± 0.3 nM

Q: For B14, which Kd is on record?
A: 53 ± 6 nM

Q: With B15 as the binder, how does the Kd read?
A: 38 ± 2.4 nM

Q: B16 was tested. Which Kd did it give?
A: 37.8 ± 3 nM

Q: How did the Kd turn out when B17 was run?
A: 67 ± 17 nM

Q: B18 was tested. Which Kd did it give?
A: 9.6 ± 0.5 nM

Q: How did the Kd turn out when B19 was run?
A: 5.72 ± 0.26 nM

Q: How did the Kd turn out when B20 was run?
A: 6.6 ± 0.4 nM

Q: How did the Kd turn out when B21 was run?
A: 9 ± 0.5 nM

Q: How did the Kd turn out when B22 was run?
A: 30 ± 4 nM

Q: With B23 as the binder, how does the Kd read?
A: 89 ± 11 nM

Q: For B24, which Kd is on record?
A: 45 ± 6 nM

Q: With B25 as the binder, how does the Kd read?
A: 10.1 ± 0.5 nM

Q: With B26 as the binder, how does the Kd read?
A: 8.9 ± 0.6 nM

Q: B27 was tested. Which Kd did it give?
A: 8.1 ± 0.4 nM

Q: B28 was tested. Which Kd did it give?
A: 13.5 ± 1 nM

— PMC10786891, “Massively parallel profiling of RNA-targeting CRISPR-Cas13d”
